These results are taken from patent US20220177587A1, “METHODS AND USES OF VARIANT CD80 FUSION PROTEINS AND RELATED CONSTRUCTS” (Alpine Immune Sciences, Inc., priority 2018, published 2022).

Experiment [1] concerns the target CD28 (human) (UniProt P10747). Nature of the experiment: flow cytometry, Jurkat cells (CD28). In general terms: Flow cytometry measures light scatter and fluorescence of single cells or particles in a stream.
In experiment [2] the target is human CTLA-4 (human) (UniProt P16410). Nature of the experiment: flow cytometry, CHO cells expressing CTLA4.
In experiment [3] the target is human PD-L1 (human) (UniProt Q9NZQ7). The experiment in a line: flow cytometry, CHO cells expressing PD-L1.
For experiment [4] the target is unchanged. Nature of the experiment: flow cytometry, MFI on PD-L1 over MFI on CD28.
Experiment [5] addresses human CTLA-4 (human) (UniProt P16410). Nature of the experiment: flow cytometry, CHO cells expressing huCTLA4.
The target in experiment [6] is human PD-L1 (human) (UniProt Q9NZQ7). Nature of the experiment: flow cytometry, CHO cells expressing huPD-L1.
The target in experiment [7] is CD28 (human) (UniProt P10747). Nature of the experiment: flow cytometry, Jurkat/IL2 reporter cells (CD28).
Experiment [8] concerns the target human CTLA-4 (human) (UniProt P16410). The experiment in a line: flow cytometry, CHO cells expressing huCTLA4, vs WT CD80 ECD-Fc (R&D).
Experiment [9] concerns the target human PD-L1 (human) (UniProt Q9NZQ7). Nature of the experiment: flow cytometry, CHO cells expressing huPD-L1, vs WT CD80 ECD-Fc (R&D).
Experiment [10] has as its target CD28 (human) (UniProt P10747). The experiment in a line: flow cytometry, Jurkat/IL2 reporter cells (CD28), vs WT CD80 ECD-Fc (R&D).
Experiment [11] addresses human CTLA-4 (human) (UniProt P16410). The experiment in a line: flow cytometry, CHO cells stably expressing CTLA4.
Experiment [12] concerns the target human PD-L1 (human) (UniProt Q9NZQ7). Nature of the experiment: flow cytometry, CHO cells stably expressing PD-L1.
The target is the same in experiment [13]. The experiment in a line: flow cytometry, MFI on CHO/PD-L1 over MFI on Jurkat (CD28).

Sequence of human CTLA-4 (human) (P16410 36-223): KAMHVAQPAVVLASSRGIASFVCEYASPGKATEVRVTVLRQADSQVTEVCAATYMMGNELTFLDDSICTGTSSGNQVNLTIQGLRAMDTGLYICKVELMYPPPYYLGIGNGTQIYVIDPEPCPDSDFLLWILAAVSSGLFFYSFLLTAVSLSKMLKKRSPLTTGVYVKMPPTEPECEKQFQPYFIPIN
Sequence of human PD-L1 (human) (Q9NZQ7 19-290): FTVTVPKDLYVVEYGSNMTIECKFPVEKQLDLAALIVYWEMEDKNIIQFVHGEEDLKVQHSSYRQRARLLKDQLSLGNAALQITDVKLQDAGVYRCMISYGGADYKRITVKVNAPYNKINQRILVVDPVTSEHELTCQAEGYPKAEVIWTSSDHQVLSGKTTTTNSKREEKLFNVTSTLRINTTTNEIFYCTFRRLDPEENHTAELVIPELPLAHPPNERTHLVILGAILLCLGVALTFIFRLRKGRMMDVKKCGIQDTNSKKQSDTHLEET

B1: CD80 E35D/M47L/Y53F/V68M/A71G/K93R/E95V IgV-Fc (Fc fusion)
chain: VIHVTKEVKEVATLSCGHNVSVEELAQTRIYWQKDKKMVLTMMSGDLNIWPEFKNRTIFDITNNLSIMILGLRPSDEGTYECVVLKYEKDAFRRVHLAEVTLSVKAD
As to B1, the Fold change to WT CD80 in experiment [1] was 12.2 fold; in experiment [2], 9.1 fold; in experiment [3], 486 fold. Moreover, the MFI at 33.3 nM in experiment [1] came out at 383 MFI; in [2] it was 16000 MFI; in [3], 25000 MFI. The Ratio of PDL1:CD28 in [4] came to 65.3.

B2: variant CD80 IgV-Fc E35D/M47I/L85Q/D90G (Fc fusion)
chain: VIHVTKEVKEVATLSCGHNVSVEELAQTRIYWQKDKKMVLTMMSGDINIWPEYKNRTIFDITNNLSIVILALRPSDEGTYECVVQKYEKGAFKREHLAEVTLSVKAD
For the molecule B2, the MFI at 33.3 nM was found to be 248000 MFI in experiment [5], 35700 MFI in [6] and 4100 MFI in [7]. Further, the Fold change to WT CD80 in experiment [8] is 1.57 fold; in [9] it was 3.01 fold; in experiment [10], 0.23 fold.

B3: variant CD80 IgV-Fc E35D/M47I/T62S/L85Q (Fc fusion)
chain: VIHVTKEVKEVATLSCGHNVSVEELAQTRIYWQKDKKMVLTMMSGDINIWPEYKNRTIFDISNNLSIVILALRPSDEGTYECVVQKYEKDAFKREHLAEVTLSVKAD
Take B3: the values for the MFI at 33.3 nM in [5], in [6] and in experiment [7] were 301000 MFI, 45000 MFI and 1760 MFI, respectively. For the same molecule, the Fold change to WT CD80 in experiment [8] was found to be 1.91 fold; in [9] it was 3.79 fold; in experiment [10], 0.1 fold.

B4: CD80 H18Y/E35D/M47V/V68M/L85M IgV-Fc (Fc fusion)
chain: VIHVTKEVKEVATLSCGYNVSVEELAQTRIYWQKDKKMVLTMMSGDVNIWPEYKNRTIFDITNNLSIMILALRPSDEGTYECVVMKYEKDAFKREHLAEVTLSVKAD
As to B4, the Fold change to WT CD80 amounted to 11.9 fold in experiment [1], 10.5 fold in experiment [2] and 326 fold in experiment [3]. For the same molecule, the MFI at 33.3 nM in [1] amounted to 373 MFI; in [2] it was 18400 MFI; in experiment [3], 16800 MFI. Besides, the Ratio of PDL1:CD28 in [4] turned out to be 45.

B5: variant CD80 IgV-Fc R29H/E35D/M43V/M47I/I49V (Fc fusion)
chain: VIHVTKEVKEVATLSCGHNVSVEELAQTHIYWQKDKKMVLTMVSGDINVWPEYKNRTIFDITNNLSIVILALRPSDEGTYECVVLKYEKDAFKREHLAEVTLSVKAD
In the case of B5, the MFI at 33.3 nM in [5] was 4690 MFI; in [6] it was 1590 MFI; in experiment [7], 336 MFI. Further, the Fold change to WT CD80 came to 0.03 fold in experiment [8], 0.13 fold in [9] and 0.02 fold in [10].

B6: CD80 H18Y/E35D/V68M/T79M/L85M IgV-Fc (Fc fusion)
chain: VIHVTKEVKEVATLSCGYNVSVEELAQTRIYWQKDKKMVLTMMSGDMNIWPEYKNRTIFDITNNLSIMILALRPSDEGMYECVVMKYEKDAFKREHLAEVTLSVKAD
In the case of B6, the Fold change to WT CD80 in experiment [1] is 33.2 fold; in [2], 9.3 fold; in experiment [3], 290 fold. Besides, the results for the MFI at 33.3 nM in experiment [1], in experiment [2] and in experiment [3] were 1040 MFI, 16300 MFI and 14900 MFI, respectively. In experiment [4], the Ratio of PDL1:CD28 came to 14.3.

B7: variant CD80 IgV-Fc Q27H/E35D/M47I/L85Q/D90G (Fc fusion)
chain: VIHVTKEVKEVATLSCGHNVSVEELAHTRIYWQKDKKMVLTMMSGDINIWPEYKNRTIFDITNNLSIVILALRPSDEGTYECVVQKYEKGAFKREHLAEVTLSVKAD
Turning to B7, the MFI at 33.3 nM in experiment [5] came to 258000 MFI; in [6], 30700 MFI; in experiment [7] it was 3510 MFI. In addition, the values for the Fold change to WT CD80 in experiment [8], in experiment [9] and in [10] were 1.64 fold, 2.58 fold and 0.19 fold, respectively.

B8: CD80 IgV-Fc H18Y/V22A/E35D/T41S/M47V/T62N/A71G/A91G (Fc fusion)
chain: VIHVTKEVKEVATLSCGYNVSAEELAQTRIYWQKDKKMVLSMMSGDVNIWPEYKNRTIFDINNNLSIVILGLRPSDEGTYECVVLKYEKDGFKREHLAEVTLSVKAD
In experiment [1], B8 had a Fold change to WT of 38.5 fold and an MFI at 33.3 nM of 1590 MFI. In [11], this molecule displayed a Fold change to WT CD80 of 10 fold and an MFI at 33.3 nM of 10300 MFI. In [12], the Fold change to WT worked out at 101 fold and the MFI at 33.3 nM came out at 8460 MFI. For the same molecule, the Ratio of PDL1:CD28 in experiment [13] was 5.

B9: CD80 T13R/Q33R/E35D/M38I/M47L/V68M/E95V/L97Q IgV-Fc (Fc fusion)
chain: VIHVTKEVKEVARLSCGHNVSVEELAQTRIYWRKDKKIVLTMMSGDLNIWPEYKNRTIFDITNNLSIMILALRPSDEGTYECVVLKYEKDAFKRVHQAEVTLSVKAD
Turning to B9, the Fold change to WT CD80 in [1] was found to be 35.4 fold; in [2] it was 11.8 fold; in [3], 372 fold. Also, the values for the MFI at 33.3 nM in experiment [1], in experiment [2] and in experiment [3] were 1110 MFI, 20700 MFI and 19200 MFI, respectively. In [4], the Ratio of PDL1:CD28 is 17.2.

B10: CD80 E35D/M47V/N48K/V68M/L85M IgV-Fc (Fc fusion)
chain: VIHVTKEVKEVATLSCGHNVSVEELAQTRIYWQKDKKMVLTMMSGDVKIWPEYKNRTIFDITNNLSIMILALRPSDEGTYECVVMKYEKDAFKREHLAEVTLSVKAD
In the case of B10, the Fold change to WT CD80 in experiment [1] amounted to 7.8 fold; in experiment [2], 8.9 fold; in experiment [3] it was 148 fold. The MFI at 33.3 nM in experiment [1] turned out to be 245 MFI; in experiment [2], 15600 MFI; in [3] it was 7620 MFI. Also, the Ratio of PDL1:CD28 in experiment [4] was 31.1.

B11: CD80 E35D/T41S/D46E/M47I/V68M/K93R/E95V IgV-Fc (Fc fusion)
chain: VIHVTKEVKEVATLSCGHNVSVEELAQTRIYWQKDKKMVLSMMSGEINIWPEYKNRTIFDITNNLSIMILALRPSDEGTYECVVLKYEKDAFRRVHLAEVTLSVKAD
B11: the Fold change to WT CD80 in experiment [1] turned out to be 15.2 fold; in experiment [2], 10.5 fold; in [3], 287 fold. The figures for the MFI at 33.3 nM in experiment [1], in experiment [2] and in [3] were 476 MFI, 18400 MFI and 14800 MFI, respectively. In experiment [4], the Ratio of PDL1:CD28 was found to be 31.1.

B12: CD80 IgV-Fc E35D/D46E/M47L/V68M/L85Q/F92L (Fc fusion)
chain: VIHVTKEVKEVATLSCGHNVSVEELAQTRIYWQKDKKMVLTMMSGELNIWPEYKNRTIFDITNNLSIMILALRPSDEGTYECVVQKYEKDALKREHLAEVTLSVKAD
Turning to B12, in experiment [1], the Fold change to WT amounted to 0.4 fold and the MFI at 33.3 nM amounted to 15 MFI. In [11], the Fold change to WT CD80 was found to be 0.2 fold and the MFI at 33.3 nM was found to be 214 MFI. For the same molecule, in experiment [12], the Fold change to WT was 158 fold and the MFI at 33.3 nM turned out to be 13200 MFI. Moreover, the Ratio of PDL1:CD28 in [13] was 863.

B13: CD80 T13R/Q33R/E35D/M47L/V68M/L85M IgV-Fc (Fc fusion)
chain: VIHVTKEVKEVARLSCGHNVSVEELAQTRIYWRKDKKMVLTMMSGDLNIWPEYKNRTIFDITNNLSIMILALRPSDEGTYECVVMKYEKDAFKREHLAEVTLSVKAD
In the case of B13, the results for the Fold change to WT CD80 in experiment [1], in experiment [2] and in experiment [3] were 3.6 fold, 7.7 fold and 368 fold, respectively. The MFI at 33.3 nM in [1] worked out at 112 MFI; in experiment [2], 13400 MFI; in [3] it was 18900 MFI. Further, in experiment [4], the Ratio of PDL1:CD28 was found to be 169.

B14: CD80 T13R/Q33R/E35D/M47L/V68M IgV-Fc (Fc fusion)
chain: VIHVTKEVKEVARLSCGHNVSVEELAQTRIYWRKDKKMVLTMMSGDLNIWPEYKNRTIFDITNNLSIMILALRPSDEGTYECVVLKYEKDAFKREHLAEVTLSVKAD
With B14, the Fold change to WT CD80 in experiment [1] came out at 0.4 fold; in experiment [2], 11.8 fold; in experiment [3] it was 285 fold. Also, the MFI at 33.3 nM in experiment [1] is 14.1 MFI; in [2] it was 20700 MFI; in experiment [3], 14700 MFI. In addition, the Ratio of PDL1:CD28 in experiment [4] is 1040.

B15: CD80 E35D/M47V/N48K/V68M/A71G/L85M IgV-Fc (Fc fusion)
chain: VIHVTKEVKEVATLSCGHNVSVEELAQTRIYWQKDKKMVLTMMSGDVKIWPEYKNRTIFDITNNLSIMILGLRPSDEGTYECVVMKYEKDAFKREHLAEVTLSVKAD
For the molecule B15, the Fold change to WT CD80 in experiment [1] amounted to 9.6 fold; in experiment [2], 9.5 fold; in [3], 442 fold. Also, the results for the MFI at 33.3 nM in experiment [1], in experiment [2] and in experiment [3] were 302 MFI, 16600 MFI and 22800 MFI, respectively. In addition, the Ratio of PDL1:CD28 in experiment [4] worked out at 75.4.

B16: CD80 IgV-Fc S15T/H18Y/E35D/M47V/T62A/N64S/A71G/L85Q/D90N (Fc fusion)
chain: VIHVTKEVKEVATLTCGYNVSVEELAQTRIYWQKDKKMVLTMMSGDVNIWPEYKNRTIFDIANSLSIVILGLRPSDEGTYECVVQKYEKNAFKREHLAEVTLSVKAD
In experiment [1], B16 displayed a Fold change to WT of 25.9 fold and an MFI at 33.3 nM of 1070 MFI. In [11], this molecule displayed a Fold change to WT CD80 of 10.7 fold and an MFI at 33.3 nM of 11000 MFI. In [12], this molecule registered a Fold change to WT of 166 fold and an MFI at 33.3 nM of 13900 MFI. Further, the Ratio of PDL1:CD28 in [13] worked out at 13.
